Source: PMC12416549 (2024)

Molecular target: T1, TNFR1 (Homo sapiens, UniProt P19438)
T1 chain: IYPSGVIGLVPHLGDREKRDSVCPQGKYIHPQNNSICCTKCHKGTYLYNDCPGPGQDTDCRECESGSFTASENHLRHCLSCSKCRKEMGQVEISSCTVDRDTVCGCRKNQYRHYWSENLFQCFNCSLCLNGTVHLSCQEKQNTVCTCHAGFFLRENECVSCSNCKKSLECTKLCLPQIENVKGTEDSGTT
Experiment: yeast display SC50

B1: K100G (designed binder)
chain: SMEEEVEKAAKEYEKKKKEAIEKHLEKLKAKDKEAAERFLKELEEAAKEYAKDEAKTMSEEEAKRRAKKYKEKVLLSELSEEEQKEIKEAEEKLVRTILGYVEEAAK
  apparent Kd (screen): 0.277 nM

B2: V95K (designed binder)
chain: SMEEEVEKAAKEYEKKKKEAIEKHLEKLKAKDKEAAERFLKELEEAAKEYAKDEAKTMSEEEAKRRAKKYKEKVLLSELSEEEQKEIKEAEEKLKRTILKYVEEAAK
  apparent Kd (screen): 3.63 nM

B3: A47R (designed binder)
chain: SMEEEVEKAAKEYEKKKKEAIEKHLEKLKAKDKEAAERFLKELEEARKEYAKDEAKTMSEEEAKRRAKKYKEKVLLSELSEEEQKEIKEAEEKLVRTILKYVEEAAK
  apparent Kd (screen): 0.49 nM

B4: K85T (designed binder)
chain: SMEEEVEKAAKEYEKKKKEAIEKHLEKLKAKDKEAAERFLKELEEAAKEYAKDEAKTMSEEEAKRRAKKYKEKVLLSELSEEEQTEIKEAEEKLVRTILKYVEEAAK
  apparent Kd (screen): 0.49 nM

B5: M2W (designed binder)
chain: SWEEEVEKAAKEYEKKKKEAIEKHLEKLKAKDKEAAERFLKELEEAAKEYAKDEAKTMSEEEAKRRAKKYKEKVLLSELSEEEQKEIKEAEEKLVRTILKYVEEAAK
  apparent Kd (screen): 0.446 nM

B6: A20I (designed binder)
chain: SMEEEVEKAAKEYEKKKKEIIEKHLEKLKAKDKEAAERFLKELEEAAKEYAKDEAKTMSEEEAKRRAKKYKEKVLLSELSEEEQKEIKEAEEKLVRTILKYVEEAAK
  apparent Kd (screen): 0.539 nM

B7: E22H (designed binder)
chain: SMEEEVEKAAKEYEKKKKEAIHKHLEKLKAKDKEAAERFLKELEEAAKEYAKDEAKTMSEEEAKRRAKKYKEKVLLSELSEEEQKEIKEAEEKLVRTILKYVEEAAK
  apparent Kd (screen): 0.539 nM

B8: L40Y (designed binder)
chain: SMEEEVEKAAKEYEKKKKEAIEKHLEKLKAKDKEAAERFYKELEEAAKEYAKDEAKTMSEEEAKRRAKKYKEKVLLSELSEEEQKEIKEAEEKLVRTILKYVEEAAK
  apparent Kd (screen): 0.869 nM

B9: S59Q (designed binder)
chain: SMEEEVEKAAKEYEKKKKEAIEKHLEKLKAKDKEAAERFLKELEEAAKEYAKDEAKTMQEEEAKRRAKKYKEKVLLSELSEEEQKEIKEAEEKLVRTILKYVEEAAK
  apparent Kd (screen): 1.16 nM

B10: L76M (designed binder)
chain: SMEEEVEKAAKEYEKKKKEAIEKHLEKLKAKDKEAAERFLKELEEAAKEYAKDEAKTMSEEEAKRRAKKYKEKVLMSELSEEEQKEIKEAEEKLVRTILKYVEEAAK
  apparent Kd (screen): 0.869 nM

B11: E83P (designed binder)
chain: SMEEEVEKAAKEYEKKKKEAIEKHLEKLKAKDKEAAERFLKELEEAAKEYAKDEAKTMSEEEAKRRAKKYKEKVLLSELSEEPQKEIKEAEEKLVRTILKYVEEAAK
  apparent Kd (screen): 3.3 nM

B12: E92P (designed binder)
chain: SMEEEVEKAAKEYEKKKKEAIEKHLEKLKAKDKEAAERFLKELEEAAKEYAKDEAKTMSEEEAKRRAKKYKEKVLLSELSEEEQKEIKEAEPKLVRTILKYVEEAAK
  apparent Kd (screen): 7.78 nM

B13: K23M (designed binder)
chain: SMEEEVEKAAKEYEKKKKEAIEMHLEKLKAKDKEAAERFLKELEEAAKEYAKDEAKTMSEEEAKRRAKKYKEKVLLSELSEEEQKEIKEAEEKLVRTILKYVEEAAK
  apparent Kd (screen): 0.869 nM

B14: T97E (designed binder)
chain: SMEEEVEKAAKEYEKKKKEAIEKHLEKLKAKDKEAAERFLKELEEAAKEYAKDEAKTMSEEEAKRRAKKYKEKVLLSELSEEEQKEIKEAEEKLVREILKYVEEAAK
  apparent Kd (screen): 1.69 nM

B15: E44W (designed binder)
chain: SMEEEVEKAAKEYEKKKKEAIEKHLEKLKAKDKEAAERFLKELWEAAKEYAKDEAKTMSEEEAKRRAKKYKEKVLLSELSEEEQKEIKEAEEKLVRTILKYVEEAAK
  apparent Kd (screen): 3.3 nM

B16: E60S (designed binder)
chain: SMEEEVEKAAKEYEKKKKEAIEKHLEKLKAKDKEAAERFLKELEEAAKEYAKDEAKTMSSEEAKRRAKKYKEKVLLSELSEEEQKEIKEAEEKLVRTILKYVEEAAK
  apparent Kd (screen): 1.54 nM

B17: E82S (designed binder)
chain: SMEEEVEKAAKEYEKKKKEAIEKHLEKLKAKDKEAAERFLKELEEAAKEYAKDEAKTMSEEEAKRRAKKYKEKVLLSELSESEQKEIKEAEEKLVRTILKYVEEAAK
  apparent Kd (screen): 0.49 nM

B18: E19H (designed binder)
chain: SMEEEVEKAAKEYEKKKKHAIEKHLEKLKAKDKEAAERFLKELEEAAKEYAKDEAKTMSEEEAKRRAKKYKEKVLLSELSEEEQKEIKEAEEKLVRTILKYVEEAAK
  apparent Kd (screen): 0.49 nM

B19: I98A (designed binder)
chain: SMEEEVEKAAKEYEKKKKEAIEKHLEKLKAKDKEAAERFLKELEEAAKEYAKDEAKTMSEEEAKRRAKKYKEKVLLSELSEEEQKEIKEAEEKLVRTALKYVEEAAK
  apparent Kd (screen): 1.69 nM

B20: E5Y (designed binder)
chain: SMEEYVEKAAKEYEKKKKEAIEKHLEKLKAKDKEAAERFLKELEEAAKEYAKDEAKTMSEEEAKRRAKKYKEKVLLSELSEEEQKEIKEAEEKLVRTILKYVEEAAK
  apparent Kd (screen): 1.54 nM

B21: K11S (designed binder)
chain: SMEEEVEKAASEYEKKKKEAIEKHLEKLKAKDKEAAERFLKELEEAAKEYAKDEAKTMSEEEAKRRAKKYKEKVLLSELSEEEQKEIKEAEEKLVRTILKYVEEAAK
  apparent Kd (screen): 0.49 nM

B22: K107N (designed binder)
chain: SMEEEVEKAAKEYEKKKKEAIEKHLEKLKAKDKEAAERFLKELEEAAKEYAKDEAKTMSEEEAKRRAKKYKEKVLLSELSEEEQKEIKEAEEKLVRTILKYVEEAAN
  apparent Kd (screen): 1.54 nM

B23: E103N (designed binder)
chain: SMEEEVEKAAKEYEKKKKEAIEKHLEKLKAKDKEAAERFLKELEEAAKEYAKDEAKTMSEEEAKRRAKKYKEKVLLSELSEEEQKEIKEAEEKLVRTILKYVNEAAK
  apparent Kd (screen): 0.49 nM

B24: H24R (designed binder)
chain: SMEEEVEKAAKEYEKKKKEAIEKRLEKLKAKDKEAAERFLKELEEAAKEYAKDEAKTMSEEEAKRRAKKYKEKVLLSELSEEEQKEIKEAEEKLVRTILKYVEEAAK
  apparent Kd (screen): 1.05 nM

B25: I21C (designed binder)
chain: SMEEEVEKAAKEYEKKKKEACEKHLEKLKAKDKEAAERFLKELEEAAKEYAKDEAKTMSEEEAKRRAKKYKEKVLLSELSEEEQKEIKEAEEKLVRTILKYVEEAAK
  apparent Kd (screen): 0.49 nM

B26: E42T (designed binder)
chain: SMEEEVEKAAKEYEKKKKEAIEKHLEKLKAKDKEAAERFLKTLEEAAKEYAKDEAKTMSEEEAKRRAKKYKEKVLLSELSEEEQKEIKEAEEKLVRTILKYVEEAAK
  apparent Kd (screen): 9.41 nM
